According to patent US20050267024A1 (published 2005):
Positions count from the first letter of the chain named.

B1: 83-15 (ligand)
chain: AHYNTEILKFMDVYQRSYCHPIETLVDIFQEYPDEIEYIFKPPCVSVYRCGGCCNSEGLQCVPTEESNITMQIMRITVPLSQGPKPVTISFANHTSCRCMSKLD
B2: 53-3 (ligand)
chain: AHYNTEILKSIDNEWRKTQCMPIETLVDIFQEYPDEIEYIFKPPCVSVYRCGGCCNSEGLQCVPTEESNITMQIMRIKPHQGQHIGEMSFLQHNKCECRPKKD
B3: 82-7 (ligand)
chain: AHYNTEILKFMDVYQRSYCHPIETLVDIFQEFGVATNTFFKPPCVSVYRCGGCCNSEGLQCVPTEESNITMQIMRIKPHQGQHIGEMSFANHTSCRCMSKLD
B4: 22-16 (ligand)
chain: AHYNTEILKSIDNEWRKTQCMPREVCIDVGKEFGVATNTFFKPPCVSVYRCGGCCNSEGLQCMNTSTSYLSKTLFEITVPLSQGPKPVTISFANHTSCRCMSKLD
B5: 82-9 (ligand)
chain: AHYNTEILKFMDVYQRSYCHPIETLVDIFQEFGVATNTFFKPPCVSVYRCGGCCNDEGLECVPTEESNITMQIMRITVPLSQGPKPVTISFLQHNKCECRPKKD
B6: 82-11 (ligand)
chain: B5 chain with D56S, E60Q
B7: 82-13 (ligand)
chain: B5 chain with L92A, Q93N, N95T, K96S, E98R, R100M, P101S, K103L
B8: 84-9 (ligand)
chain: B5 chain with P43S, S46P, V47L, Y48M
B9: 84-11 (ligand)
chain: B5 chain with P43S, S46P, V47L, Y48M, D56S, E60Q
B10: 11-1 (ligand)
chain: GQNHHEVVKFMDVYQRSYCHPIETLVDIFQEYPDEIEYIFKPSCVPLMRCGGCCNDEGLECVPTEESNITMQIMRIKPHQGQHIGEMSFLQHNKCECRPKKD
B11: 12-1 (ligand)
chain: GQNHHEVVKFMDVYQRSYCHPIETLVDIFQEFGVATNTFFKPPCVSVYRCGGCCNDEGLECVPTEESNITMQIMRIKPHQGQHIGEMSFLQHNKCECRPKKD
B12: 12-3 (ligand)
chain: B11 chain with D56S, E60Q
B13: 12-5 (ligand)
chain: B11 chain with L90A, Q91N, N93T, K94S, E96R, R98M, P99S, K101L
B14: 12-7 (ligand)
chain: B3 chain with A1G, H2Q, Y3N, N4H, T5H, I7V, L8V
B15: 12-9 (ligand)
chain: B5 chain with A1G, H2Q, Y3N, N4H, T5H, I7V, L8V
B16: 12-11 (ligand)
chain: B5 chain with A1G, H2Q, Y3N, N4H, T5H, I7V, L8V, D56S, E60Q
B17: 12-13 (ligand)
chain: GQNHHEVVKFMDVYQRSYCHPIETLVDIFQEFGVATNTFFKPPCVSVYRCGGCCNDEGLECVPTEESNITMQIMRITVPLSQGPKPVTISFANHTSCRCMSKLN
B18: 12-14 (ligand)
chain: GQNHHEVVKFMDVYQRSYCHPIETLVDIFQEFGVATNTFFKPPCVSVYRCGGCCNDEGLECMNTSTSYLSKTLFEITVPLSQGPKPVTISFANHTSCRCMSKLD
B19: 61-14 (ligand)
chain: GQNHHEVVKFMDVYQRSYCHPREVCIDVGKEYPDEIEYIFKPSCVPLMRCGGCCNDEGLECMNTSTSYLSKTLFEITVPLSQGPKPVTISFANHTSCRCMSKLD
B20: 12-15 (ligand)
chain: B17 chain with D56S, E60Q, N104D
B21: 14-9 (ligand)
chain: GQNHHEVVKFMDVYQRSYCHPIETLVDIFQEFGVATNTFFKPSCVPLMRCGGCCNDEGLECVPTEESNITMQIMRITVPLSQGPKPVTISFLQHNKCECRPKKD
B22: 72-7 (ligand)
chain: GQNHHEVVKSIDNEWRKTQCMPREVCIDVGKEFGVATNTFFKPPCVSVYRCGGCCNSEGLQCVPTEESNITMQIMRIKPHQGQHIGEMSFANHTSCRCMSKLD
B23: 22-1 (ligand)
chain: AHYNTEILKSIDNEWRKTQCMPREVCIDVGKEFGVATNTFFKPPCVSVYRCGGCCNDEGLECVPTEESNITMQIMRIKPHQGQHIGEMSFLQHNKCECRPKKD

What follows are binders tested against T1, VEGFR-1-Fc (human, UniProt P17948 27-331) (assay: receptor-Fc IP).
T1 construct: domain: first three Ig domains; expressed in Drosophila S2 cells, purified on Protein A sepharose; also called VEGFR-1-Fc fusion protein; not shown: Fc fragment from the Signal-pIgPlus vector
T1 sequence (P17948 27-331): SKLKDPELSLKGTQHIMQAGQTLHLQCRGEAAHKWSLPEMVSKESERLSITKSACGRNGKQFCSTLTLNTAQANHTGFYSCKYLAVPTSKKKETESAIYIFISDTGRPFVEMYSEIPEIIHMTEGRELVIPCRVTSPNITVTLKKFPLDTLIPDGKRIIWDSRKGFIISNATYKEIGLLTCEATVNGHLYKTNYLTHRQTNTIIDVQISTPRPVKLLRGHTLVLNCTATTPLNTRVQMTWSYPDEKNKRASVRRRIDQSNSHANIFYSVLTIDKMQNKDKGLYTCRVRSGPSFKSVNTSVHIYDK
Description: (§1) The binding assay procedure was identical to the immunoprecipitation using pentahistidine antibody described in Example 2, apart from the composition of the immunoprecipitation (IP) mixes. The IP mixes used for the receptor binding analysis were as follows: For VEGFR-1 binding assays, the IP mix was phosphate buffered saline (PBS) containing 1.5% BSA, 0.06% Tween 20, 3 μg/ml heparin and 400 ng/ml VEGFR-1-Fc fusion protein (100 μl of this IP mix was added to 200 μl of sample supernatant); for VEGFR-2 binding assays, the IP mix was 82% conditioned cell supernatant from 293T cells transiently expressing VEGFR-2-Fc fusion protein in mixture with 18% of a PBS solution that contained 5% BSA, 0.2% Tween 20, and 10 μg/ml heparin (250 μl of IP mix was added to 200 μl of sample supernatant); and for VEGFR-3 binding assays, the IP mix was 82% conditioned cell supernatant from 293T cells transiently expressing VEGFR-3-Fc fusion protein, 18% of PBS containing 5% BSA, 0.2% Tween 20, and 10 μg/ml heparin (250 μl of IP mix was added to 200 μl of sample supernatant).

Row | Binder | binding result
1 | B1 | binds
2 | B2 | binds
3 | B3 | binds
4 | B4 | no binding
5 | B5 | binds
6 | B6 | binds
7 | B7 | binds
8 | B8 | binds
9 | B9 | binds
10 | B10 | binds
11 | B11 | binds
12 | B12 | binds
13 | B13 | binds
14 | B14 | binds
15 | B15 | binds
16 | B16 | binds
17 | B17 | binds
18 | B18 | no binding
19 | B19 | no binding
20 | B20 | no binding
21 | B21 | binds
22 | B22 | no binding
23 | B23 | no binding

The binders below were run against T2, VEGFR-3-Fc (human, UniProt P35916 25-328) (assay: receptor-Fc IP).
T2 construct: domain: first three Ig domains; used as conditioned supernatant of 293T cells; also called VEGFR-3-Fc fusion protein; not shown: Fc fragment of the pIg vector
T2 sequence (looked up): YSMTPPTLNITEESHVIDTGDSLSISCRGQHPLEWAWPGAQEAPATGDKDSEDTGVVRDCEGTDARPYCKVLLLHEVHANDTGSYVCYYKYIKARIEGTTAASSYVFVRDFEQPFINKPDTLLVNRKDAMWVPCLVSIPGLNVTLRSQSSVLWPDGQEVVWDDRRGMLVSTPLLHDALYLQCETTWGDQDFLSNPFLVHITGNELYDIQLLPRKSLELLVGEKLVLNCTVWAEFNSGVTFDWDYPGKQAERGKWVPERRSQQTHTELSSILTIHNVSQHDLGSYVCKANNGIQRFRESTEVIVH
Description: as §1

Row | Binder | binding result
24 | B1 | no binding
25 | B2 | binds
26 | B3 | binds
27 | B4 | binds
28 | B5 | binds
29 | B6 | binds
30 | B7 | binds
31 | B8 | binds
32 | B9 | binds
33 | B10 | no binding
34 | B11 | binds
35 | B12 | no binding
36 | B13 | no binding
37 | B14 | binds
38 | B15 | binds
39 | B16 | binds
40 | B17 | binds
41 | B18 | binds
42 | B19 | no binding
43 | B20 | binds
44 | B21 | binds
45 | B22 | no binding
46 | B23 | no binding

What follows are binders tested against T3, VEGFR-2-Fc (human, UniProt P35968 20-322) (assay: receptor-Fc IP).
T3 construct: domain: first 3 Ig domains; used as conditioned supernatant of 293T cells; also called VEGFR-2-Fc fusion protein; not shown: Fc fragment of the pIg vector
T3 sequence (P35968 20-322): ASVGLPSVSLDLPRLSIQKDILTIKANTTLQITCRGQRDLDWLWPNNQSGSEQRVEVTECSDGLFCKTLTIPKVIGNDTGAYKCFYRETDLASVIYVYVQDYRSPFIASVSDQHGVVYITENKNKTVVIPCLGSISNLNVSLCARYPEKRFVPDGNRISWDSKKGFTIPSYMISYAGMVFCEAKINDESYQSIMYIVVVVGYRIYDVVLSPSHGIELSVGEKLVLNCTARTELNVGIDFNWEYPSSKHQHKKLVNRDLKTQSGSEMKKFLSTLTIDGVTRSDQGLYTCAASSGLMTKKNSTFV
Description: as §1

Row | Binder | binding result
47 | B1 | binds
48 | B2 | binds
49 | B3 | binds
50 | B4 | binds
51 | B5 | binds
52 | B6 | binds
53 | B7 | no binding
54 | B8 | binds
55 | B9 | binds
56 | B10 | binds
57 | B11 | binds
58 | B12 | binds
59 | B13 | no binding
60 | B14 | binds
61 | B15 | no binding
62 | B16 | binds
63 | B17 | no binding
64 | B18 | no binding
65 | B19 | no binding
66 | B20 | binds
67 | B21 | binds
68 | B22 | no binding
69 | B23 | no binding
